Assay [1] addresses T1, PIP4K2C on the HuProt human proteome microarray (human, UniProt Q8TBX8 1-421).
T1 construct: PIP4K2C, phospholipid kinase, human; spotted on the array as N-terminal GST fusion; source: bought: HuProt v4.0 20K Human Proteome Microarray (CDI Laboratories), purified human proteins; not shown: GST, N-terminal, kept
T1 sequence (looked up): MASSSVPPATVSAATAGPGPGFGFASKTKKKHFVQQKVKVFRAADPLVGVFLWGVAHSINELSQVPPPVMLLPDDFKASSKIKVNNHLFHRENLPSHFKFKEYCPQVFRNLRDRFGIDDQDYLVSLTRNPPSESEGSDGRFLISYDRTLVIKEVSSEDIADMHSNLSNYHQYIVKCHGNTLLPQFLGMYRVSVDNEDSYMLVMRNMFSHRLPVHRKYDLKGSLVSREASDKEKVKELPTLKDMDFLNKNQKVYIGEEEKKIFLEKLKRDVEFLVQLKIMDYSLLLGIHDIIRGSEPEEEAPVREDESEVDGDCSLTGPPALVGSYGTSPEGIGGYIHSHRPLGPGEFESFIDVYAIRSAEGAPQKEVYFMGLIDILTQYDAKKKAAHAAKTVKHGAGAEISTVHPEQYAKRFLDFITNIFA
Briefly: peptide or protein array; Cy3-tagged His-WDR73 incubated on the HuProt v4.0 20K Human Proteome Microarray (purified human proteins as N-terminal GST fusions) overnight at 4 °C, washed, scanned; candidates by Z-score > 3. The following applies: both partners purified.

The target in assay [2] is T2, PIP4K2A on the HuProt human proteome microarray (human, UniProt P48426 1-406).
T2 construct: PIP4K2A, human; spotted on the array as N-terminal GST fusion; source: bought: HuProt v4.0 20K Human Proteome Microarray (CDI Laboratories), purified human proteins; not shown: GST, N-terminal, kept
T2 sequence (looked up): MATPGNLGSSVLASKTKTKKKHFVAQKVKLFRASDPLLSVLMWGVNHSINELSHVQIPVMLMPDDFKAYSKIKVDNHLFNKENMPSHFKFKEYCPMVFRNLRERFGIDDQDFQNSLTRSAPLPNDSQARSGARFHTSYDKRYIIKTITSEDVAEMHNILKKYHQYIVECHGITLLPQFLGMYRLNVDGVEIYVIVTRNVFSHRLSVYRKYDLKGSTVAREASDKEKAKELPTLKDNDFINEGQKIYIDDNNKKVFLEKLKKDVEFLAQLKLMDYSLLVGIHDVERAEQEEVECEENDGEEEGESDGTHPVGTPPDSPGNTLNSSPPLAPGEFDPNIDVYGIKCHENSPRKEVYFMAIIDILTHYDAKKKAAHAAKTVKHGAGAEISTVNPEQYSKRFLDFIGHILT
The description is as above. The following applies: both partners purified.

B1: Cy3-tagged His-WDR73 (natural protein, human, UniProt Q6P4I2 1-378, looked up)
chain: MDPGDDWLVESLRLYQDFYAFDLSGATRVLEWIDDKGVFVAGYESLKKNEILHLKLPLRLSVKENKGLFPERDFKVRHGGFSDRSIFDLKHVPHTRLLVTSGLPGCYLQVWQVAEDSDVIKAVSTIAVHEKEESLWPRVAVFSTLAPGVLHGARLRSLQVVDLESRKTTYTSDVSDSEELSSLQVLDADTFAFCCASGRLGLVDTRQKWAPLENRSPGPGSGGERWCAEVGSWGQGPGPSIASLGSDGRLCLLDPRDLCHPVSSVQCPVSVPSPDPELLRVTWAPGLKNCLAISGFDGTVQVYDATSWDGTRSQDGTRSQVEPLFTHRGHIFLDGNGMDPAPLVTTHTWHPCRPRTLLSATNDASLHVWDWVDLCAPR
modifications: labeled with Cy3 (CyDye Protein Labelling CY3 MONO 5-PACK, GE)
notes: WDR73 (WD40-repeat-containing protein), human; Probe of the HuProt microarray; also called recombinant His-WDR73 fusion protein; purified human WDR73 protein; source: recombinant, purified by MerryBio Co., Ltd
As for B1, the binding result in assay [1] and in assay [2] was “binds” in each case.

Values taken from paper PMC9598763, “WDR73 Depletion Destabilizes PIP4K2C Activity and Impairs Focal Adhesion Formation in Galloway–Mowat Syndrome” (Biology, 2022).
